Source: the nanobody polyreactivity screen of Harvey et al. (2022)

Assay: yeast display, Sf9 membrane polyspecificity reagent, FACS + sequencing; frameworks hold sequencing errors
Procedure, shortened: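 In a synthetic yeast display library (Saccharomyces cerevisiae BJ5465), nanobody expression was induced with galactose for 36–48 hours. FACS gates were set low and high (top ~1%) using anti-HA fluorescence for expression and streptavidin fluorescence for binding of the Sf9 membrane reagent. Each polyreactivity label is drawn from the gate of origin.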

Sequence: QVQLVESGGGLVQAGGSLRLSSAASGRTFYRNAIGWYRQAPGKERELVAAISSGSTTYYADSVKGRFTISRDNAKNTVYLQMNSLKPEDTAVYYCATTLRQYKPPSGRDYWGQGTQVTVSS
- polyreactivity (PSR sort gate): low polyreactivity

Sequence: QVQLVESGGGLVQAGGSLGLSCAASGRIFARYAMGWYRQAPGKERELVAAITKSVGSTYYADSVKGRFTISRDNAKNTVYLQMNIMKPEDTAVYYCAARYRGGYYFGYETYYYWGQGTQVTVSS
- polyreactivity (PSR sort gate): high polyreactivity

Sequence: QVQHVDSAGGIVQAGGILRLSCAASGPTFGKYAMGWYRQQHGKERELVATITRTARTNYADSVKGRFTSSRDNAKNTVYLQMNSRKPEDTAVYYCDAPWRYTFPPQVYGQSYGYWGQGTQVTVSS
- polyreactivity (PSR sort gate): high polyreactivity

Sequence: QVQLVESGGGLVQAGGSLRLSCAASGSIFGFYAMGWYRQAPGKERELVAAIRYTGGSTYYADSVKGRFTISRDNAKNTVYLQMNSLKPEDTAVYYCNARTFRRYVSYSRTYVGYDYWGQGTQVTVSS
- polyreactivity (PSR sort gate): high polyreactivity

Sequence: QVQLVESGGGLVQAGASLRLSCASSGSISKSYAMGWYRQAPGKERELVAAISWRGGSTYADSVKGRFTISRDNAKNTVYLQMNSLKPVDTAVYYCAATNYGTFWVGQSERYDYWGQGTEVTVSS
- polyreactivity (PSR sort gate): low polyreactivity

Sequence: QVQLVESGGGLVQAGGSLRLSCAASGIIFYGNAMGWYRQAPGKERELVAAISWSGSSTYYADSVKGRFTISRDNAKNTVYLQMNSLKPEDTAVYYCAADIPYQFVRDVYYWGQGTQVTLSS
- polyreactivity (PSR sort gate): high polyreactivity

Sequence: QVQLVESGGGLVQAGGSLRLSCAASGFTFGYYAMGWYRQAPGKERELVAAISSRGSGTYYADSVKGRFTMSRDNAKNTVYLQLNSLKPEDTAVYYCARPSALLGYWGQGTQVTVSS
- polyreactivity (PSR sort gate): low polyreactivity

Sequence: QVQLVETGGGLVQAGGSLRLSCAASGRTFGIYAMGWYRQAPGKERELVAANTGRGGSTHYADSVKGRFTISRDNAKNTVYLQMNSLKPEDTEVYYGAADYRYNRGITSNKDYDYWGQGTQVTVSS
- polyreactivity (PSR sort gate): low polyreactivity

Sequence: QVQLVESGGGLVQAGGSLRLSCAASGRTFVLNAMGWYRQAPGKERELVAAITLGGGSTYADSVKGRLTISRDNAKNTVYLQMNSLKPEDTEVYYCNKASGVFYGHLDYWGQGTQVTVSS
- polyreactivity (PSR sort gate): low polyreactivity

Sequence: QVQLVESGGGLVQAGGSLRLICAASGNIFAYYAMGWYRQAPGKERELVAGISRRAGNTYYADSVTGRFTISRDNAKNTVYLHMNSLKREDTAFYYCNKYTKRSGMDYWGQGTQVTVSS
- polyreactivity (PSR sort gate): high polyreactivity

Sequence: QVQLVESGGGLVQAGGSLRLSCAASGRIFSYYDMGWYRQAPGKERELVATIRWSTSSTYADSVKGRFTISRDNAKPTVYLQMNILKPEDTAVYYCNAQYSQVNGYDYWGQGTQVTVSS
- polyreactivity (PSR sort gate): low polyreactivity

Sequence: QVQLVESGGVLVQAGGSLRLSCAASGSTFEDYTMGWYRQAPRKVRELVAISTRGGTYYADSVKGRFTSSRDNPKNTVYLQRNSLKPEDTAVYYCNKRFGYYSWDQYSRDYWGQGTQVTVSS
- polyreactivity (PSR sort gate): low polyreactivity

Sequence: QVQLVESGGGLVQAGGSLRLSCAASGSIVVDYAMGWYRQAPGKERELVAAITSTGSTTYADSVKGRFTISRDNAKNTVYLQMNSLKPEDTAVYYCAASFRWYGTVRYPYEMYYWGQGTQVTVSS
- polyreactivity (PSR sort gate): low polyreactivity

Sequence: QVQLVESGAGLVQAGGSLRLSCAASGRTLTYNAMGWYRQAPGKEREFVAAISVGGGSTYADSVKGRFTISRDNAKNTVYLQMNRLKPEDTAVYYCAAAYTKLYYYWGQGTQVTVSS
- polyreactivity (PSR sort gate): low polyreactivity

Sequence: QVHLGESGGRLVQPGGSLRLSCAASGCTFCPYAMGWSRQAPGKARELVAAISNGGGPKYADSVKCRFTISRDNAKHTVYLQMNSLKPEDTAVYYCAKTLWTGRAWYDYWGQGTQVTVSS
- polyreactivity (PSR sort gate): high polyreactivity

Sequence: QVQLVESGGGLVQAGGSLRLSCAASGIIFVVNDMGWYRQAPGKERELVADISDSGGSTNYADSVKGRFTISRDNAKNTVYLQMNSLKPEDTAVYYCNADGITSLPVPALDYWGQGTQVTVSS
- polyreactivity (PSR sort gate): low polyreactivity

Sequence: QVQLVESCGGLVQAGGSLRLSCAASGITFFGYDMGWYRQAPWKEWELVAAITSTGRTYYADSVKGRFTISRDNAKKTDYLQMNSLTPEDTAVYYCNAARYPRSWYYKLDYWGQGTQVTVSS
- polyreactivity (PSR sort gate): high polyreactivity

Sequence: QVQLVESGGGLVQAGGSLRLSCAASGSIFVGYVMGWYRQAPGKERELVARIRWGGGRTYYADSVKGRFTISRDNAKNTVYLQMNSLKPEDTAVYYCNARYSYHSVGYWGQGTQVTVSS
- polyreactivity (PSR sort gate): high polyreactivity

Sequence: QVQLVESGGGLVQAGGSLRLSCAASGITFDYNAMGWYRQAPGKERELVASINSGGNTNYADSVKGRFTISRDNAKNTVYLQMNSLKPEDTAVYYCATVSYYLYTRYDYWGQGTQVTVSS
- polyreactivity (PSR sort gate): low polyreactivity

Sequence: QVQLLESGGGLVQAGGSLRLSCAASGLTFTAYVMGWYRHAPGKERELVAAISGGGSTYADSVKGRFTISGDNAKNTVSLQMNSLKPEDTAVYYCNADGWGDRFWSNFRFDYWGQGTQVTVSS
- polyreactivity (PSR sort gate): low polyreactivity

Sequence: QVQLVESGGGLVQAGGSLRLSCAASGRIFLVYVMGWYRQAPGKERELVAAISASDGSTYYADSVKGRFTISRDNAKNTVYLQMNSLKPEDTAVYYCAEWGYSLDSNSYRELNYWGQGTQVTVSS
- polyreactivity (PSR sort gate): low polyreactivity

Sequence: QVQLVESGGGLVQAGGSLRLSCAASGRIFGYYAMGWYRQAPGKERELVATIRGGGSTNYADSVKGRCTISRDNAKNTVFLQMNSLKPEDTAVYYCAKPCAKWRGFDYWGQGTQVTVSS
- polyreactivity (PSR sort gate): low polyreactivity

Sequence: QVQLVESGGGLVQAGGSLRLSCAASGRTFGVYAMGWYRQAPGKESELVAAISRLAGNTYYADSVKGRFTISRDNAKNTVYLQMNSLKPEDTAVYYCAADFSRQYGYWGQGTQVTVSS
- polyreactivity (PSR sort gate): high polyreactivity

Sequence: QVQLVESGGGLVQAGGSLRLTCAASGFIFYSYAMGWYRQAPGKERELVAAISTSGGSTYYADSVKGRFTISRDNAKNTVYLQMNSLKPEDTAVYYCAVGRKFGRYRVPFVVPYEYWGQGTQVTVSS
- polyreactivity (PSR sort gate): high polyreactivity

Sequence: QVQLVESGGGLVQAGGSLRLSCAASGRIFRNYGMGWYRQAPGKERELVATITWTGGSTFYADSVKGRFTISRDNAKNTVYLQMNSLKPEDTAVYYCAAEWHRLIYFSPRYDFDYWGQGTQVTVSS
- polyreactivity (PSR sort gate): low polyreactivity

Sequence: QVQLVESGGGLVQAGGSLRLTCAASGRTFTLNAMGWYRQAPGKERELVADIRRRGGSTYYADSVKGRFTISRDNAKNTVYVQMNSRKAADTAVYYCATHGRWYKLPTGWRPYDYWGLGTQVTVSS
- polyreactivity (PSR sort gate): high polyreactivity

Sequence: QVQLVESGGGLVQAGGSLRLICAASGSTFWPYARGWYRQAPGNERELVAAITWSGGRTYYADSVKGRFTISRDNAKNTVYLQMNSLKPEDTAVYYCAADSYVLGRWYGYWGQGTQVTVSS
- polyreactivity (PSR sort gate): low polyreactivity

Sequence: QVQHVETGGGLVQAGGSLRLSCAASGIFGYNAMGGYRQAPAKERELVAGITKSGARTYYADSVKGRFTISRDNAKNTVYLQMNSLKPEDTAVYYCKAVGKRFYNDDYWGQGTQVTVSS
- polyreactivity (PSR sort gate): high polyreactivity

Sequence: QDQLVESGGGLVQAGGSLRLSCAASGRIFVYYVMGLYRQAPGKERELVAAITYSGGSTYYADSVKGRFTISRDNAKNTVYLQMNSLKPEDTAVYYCNNVDAFGIVRLYYWGQGTQVTVSS
- polyreactivity (PSR sort gate): low polyreactivity

Sequence: QVQLVESGGGLVQAGGSLRLSCASSGYTFDYYTMGWYRQAPGKERELVARITASGGSTYYADSVKGRFTISRDNAKNTVYLQMNSLKPEDTSVYYCAKAWYRYSRFDYWGQGTQVTVSS
- polyreactivity (PSR sort gate): high polyreactivity

Sequence: QVQLVESGGGLVQAGGSLRLSCAASGRTIYQNAMGWYRQAPGKEREFVAAITGGTGSTHYADSVKGRFTISRDNAKITVYLQMNSLKPEDSAVYYCATRYLFGFSRYDYWGQGTQVTVSS
- polyreactivity (PSR sort gate): low polyreactivity

Sequence: QVQLVESGGGLVQAGGSLRLSCAASGRTFYEYAMGWYRQAPGKERELVAGITSGGSTNYADSVKGRFTISRDNAKNTVYLQMNSLKPEDTAVYYCDASYWGYEYDYWGQGTQVTVSS
- polyreactivity (PSR sort gate): low polyreactivity

Sequence: QVQLVESGGGLVQAGGSLRLSCAASGFTFGGNAMGWYRQAPGKEREFVAAITRSGGSTYYADSVKGRFTISRDNAKNTVYLQMNSLKPEDTAVYYCAARRSYPLGYDYWGQGTQVTVSS
- polyreactivity (PSR sort gate): high polyreactivity

Sequence: QVQLVESGGGLVQAGGSLRLSCAASGSIFALYAMGWYRQAPGKERELVAAISWRAGGTYYADSVKGRFTISRDNAKNTVYLQMNSLKPEDTAVYYCAAEISLYYYGDYEYWGVGTQVTVSS
- polyreactivity (PSR sort gate): high polyreactivity

Sequence: QVQLVESGGGLVQAGGSLRLSCAASGLTFAWYAMGWYRPAPGKERELVATITSGGSTNYADSVKGRFTISRDNAKNTVYLQMNSLKPEDTAVYYCNADYIYYGTTYEYWGQGTQVTVSS
- polyreactivity (PSR sort gate): low polyreactivity

Sequence: QVQLVESGGGLVQAGGSLRLSCAASGFTFYSNAMGWYRQAPGKERELVAAISFSGTRTYYADSVKGRFTISRDNAKNTVYLQMNSLKPEDTAVYYCNAVAYNYPRTYDYWGQGTQVTVSS
- polyreactivity (PSR sort gate): high polyreactivity

Sequence: QVQLQESGGVQAGGSLRLSCAESGYISRSDVMGWYRQAPGKERELVATINNGTITYYADSVKGRFTISRDNAKNTVYLQMNSLKPEDTAVHYCAVVQSDTDSLYYWGQGTQVTVSS
- polyreactivity (PSR sort gate): low polyreactivity

Sequence: QVQLVESGGGLVQAGVSLRLSWAASGRTGVNAMGWYRQAPGKERGLVAAINTSVGRTYYADSVKGRFTISRDNAKNPVYLQMNCLKPEDTAVYYCNTDRLGAARYDDWGQGTQVTVSS
- polyreactivity (PSR sort gate): low polyreactivity

Sequence: QVQLVESGGGLVQAGGSLRLSCAASGRTFRFYAMGWYRQAPGKEREFVAAISRSVGSTYYADSVKGRFTISRDNAKNTVDLQMNSLKPEDTAVYYCNADYRSRYVEYDYWGQGTQVTVSS
- polyreactivity (PSR sort gate): high polyreactivity

Sequence: QVQLVESGGGLVQAGGSLRLSCAASGRIFVGNAMGWYRQAPGKERELVAAISRSGGRTYYADSVKGRFTISRDNAKNTVYLQMNSLKPEDTAVYYCYTRVYAGKYDYWGQGTQVTVSS
- polyreactivity (PSR sort gate): high polyreactivity

Sequence: QVQLVESGGGLVQAGGSLRLSCAASGITFYSYAMGSYRQAPGKERELVAAISWRGGSTRYADSVKGRFTISRDNAKNTVYLQMNSLKPEDTAVYYCAARLRTKLPIPSTVGYWGQGTQVTVSS
- polyreactivity (PSR sort gate): high polyreactivity

Sequence: QVQLVESGGGLVQAGGSLRLSCAASGRIFDVNAMGWYRQAPGKERELVAAITYSDGSTYYADSVKGRFTISRDNAKNTVYLQMNSLKPEDTAVYYCAATQEPVTPQPYGYWGQGTQVTVSS
- polyreactivity (PSR sort gate): low polyreactivity

Sequence: QDQLVESGGGLVQAGGSLRLSCAASGSIFVNNAMGWYRQAPGKERELVAAISRSGGNTYYADSVKGRFTISRDNAKNTVYLQMNSLKPEDTAVYYCAADFRGRYGYWGQGTQVTVSS
- polyreactivity (PSR sort gate): high polyreactivity
